Data on 132 substances can be found in the supplement of paper PMC12042874.

± gives the uncertainty stated by the source.

This series in a line: amyloid nucleation score (Sup35N fusion, yeast selection) (log enrichment); library NNK3; higher = more nucleation; inactive = no reads after selection. The gist of the method: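 Libraries of peptides of 20 random codons fused to Sup35N were expressed in psi-negative yeast and induced 24 hours with 100 μM copper sulfate. Selection was 7 days at 30°C on medium lacking adenine and uracil, and plasmid inserts were Illumina-sequenced before and after selection. Nucleation score is the DiMSum log enrichment of output over input reads, centred on the mode score of non-aggregating sequences, and sequences with under 100 input reads were left out.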
On to SLLYFLRNVKC, for which the amyloid nucleation score entry was “inactive”.

Regarding SLMEGYSFSVPRSASRCSSQ, the amyloid nucleation score result was “inactive”.

As to SLMNHLSGTKVMLGRLRYSN, the amyloid nucleation score entry is “inactive”.

With SLMPMNYYGVTINVRWSLIQ, the amyloid nucleation score worked out at 0.554 ± 0.45.

On to SLRDRKDRWGCQMLRRWVDF, for which the amyloid nucleation score entry was “inactive”.

With SLRFISSLWV, the amyloid nucleation score result is “inactive”.

On to SLRFMLWLLL, for which the amyloid nucleation score entry is “inactive”.

Consider SLRLSCVDVQVNN, for which the amyloid nucleation score was -0.253 ± 0.9.

Regarding SLRSCGSGLRSYRAVKTLPG, the amyloid nucleation score entry is “inactive”.

Consider SLSEEYDTLPATWTAQVCKR, for which the amyloid nucleation score entry is “inactive”.

Take SLSHECTSNKTEQVIERRLW: the amyloid nucleation score result is “inactive”.

SLSIVETIGVCL: the amyloid nucleation score entry was “inactive”.

On to SLTMNLFVRTASCGLASRVR, for which the amyloid nucleation score is -0.541 ± 1.7.

With SLVYACSSEL, the amyloid nucleation score result was “inactive”.

Substance SLWNDFMCQSCLGVIVNGAA came in with an amyloid nucleation score of 0.253 ± 0.6.

On to SLWPSRNCVDEEVFDFSDKS, for which the amyloid nucleation score entry was “inactive”.

With SLWVSI, the amyloid nucleation score result was “inactive”.

In the case of SLYFDT, the amyloid nucleation score entry is “inactive”.

With SMDCFYLSHCRYRPRVI, the amyloid nucleation score result was “inactive”.

For SMDMRWAFICLILTITSMGR, the amyloid nucleation score result was “inactive”.

SMDVLRFDQYRWLYRVFNLH: the amyloid nucleation score entry was “inactive”.

SMFCMVSFMMW returned an amyloid nucleation score of -0.071 ± 0.22.

Turning to SMFGLRLIDG, the amyloid nucleation score entry is “inactive”.

As to SMFMLCVSADGEFFNCGTNH, the amyloid nucleation score entry is “inactive”.

As to SMHRQVPFPMKKHLEHLSMT, the amyloid nucleation score result was “inactive”.

The substance SMINKRR yielded an amyloid nucleation score of 1.16 ± 0.15.

SMIYRLRSWVQYCDSQC had an amyloid nucleation score of 0.344 ± 0.21.

Take SMKEVLMTSGTSNVITSGGD: the amyloid nucleation score entry is “inactive”.

As to SMKLLT, the amyloid nucleation score is -0.254 ± 0.7.

Take SMLLVGTPDIIGDS: the amyloid nucleation score result is “inactive”.

As to SMNTHGCFYRRYLSESPFEC, the amyloid nucleation score result is “inactive”.

Regarding SMRSA, the amyloid nucleation score entry is “inactive”.

As for SMSMDAYPQPPLNAMVLVSH, the amyloid nucleation score entry was “inactive”.

Consider SMVVERGNQRLRSTYYADCV, for which the amyloid nucleation score result was “inactive”.

The substance SNASIYRSFWWGKYSRA registered an amyloid nucleation score of -0.619 ± 0.82.

As for SNDFEVLVLQLLYFSIWCY, the amyloid nucleation score stood at 1.48 ± 0.091.

Regarding SNEEYGGSQKETCTIGSSLG, the amyloid nucleation score entry is “inactive”.

As to SNFFRYIFYTRSQFSFQLIN, the amyloid nucleation score entry is “inactive”.

SNIDCLFNNVLCWIVFEWC registered an amyloid nucleation score of 1.07 ± 0.11.

As for SNIRYRNFRSGFFIQWLHTG, the amyloid nucleation score result is “inactive”.

Regarding SNLHMILDGWEMCALHAAMG, the amyloid nucleation score result is “inactive”.

SNLLCEALETRLYPRLKHVR: the amyloid nucleation score result was “inactive”.

As for SNLMYGNISINLDRWYVAFF, the amyloid nucleation score was determined as 2.51 ± 0.074.

Regarding SNMNV, the amyloid nucleation score result was “inactive”.

With SNMSMMSYYAGRDPRPVSFL, the amyloid nucleation score entry was “inactive”.

Consider SNRNRTTNMNHEPLANYSFN, for which the amyloid nucleation score entry was “inactive”.

For the substance SNYVMKVYRACHQVQPTISA, the amyloid nucleation score result was “inactive”.

Regarding SPARRLAAFGFVVL, the amyloid nucleation score was -0.385 ± 1.2.

Consider SPCIVLVQKLCGLGCRFVSV, for which the amyloid nucleation score was 1.68 ± 0.11.

For SPLKIMH, the amyloid nucleation score result is “inactive”.

Take SPLNQVSGYIMFWYSGT: the amyloid nucleation score entry is “inactive”.

On to SPQLNCEANWKVFCWAGMDP, for which the amyloid nucleation score entry was “inactive”.

In the case of SPRSFIILVGNGYISCSSVE, the amyloid nucleation score was determined as 2.56 ± 0.073.

SPTRQLIKFKYSGHYIVHLR: the amyloid nucleation score result was “inactive”.

Take SPVHLCMDLGSS: the amyloid nucleation score result was “inactive”.

Turning to SPVVIRFTLLIKCRWLVVWI, the amyloid nucleation score entry is “inactive”.

As to SQACNHLVADRSTIGELSRM, the amyloid nucleation score result was “inactive”.

SQFDAYPCKMFHVYKNYP: the amyloid nucleation score result is “inactive”.

Consider SQFTEICTPVRHGSCCR, for which the amyloid nucleation score entry is “inactive”.

As for SQKFVYLMSPSWPGGQLEAR, the amyloid nucleation score result is “inactive”.

With SQLAYVGTVKTNFDKISRCG, the amyloid nucleation score result is “inactive”.

With SQLKMSYRHYPMMMCVIVFS, the amyloid nucleation score entry is “inactive”.

SQQRQVMPKRQSEKLYPSH: the amyloid nucleation score entry is “inactive”.

As for SQRELYH, the amyloid nucleation score entry is “inactive”.

On to SQSWMSNLLMGSRDDL, for which the amyloid nucleation score was determined as 1.58 ± 0.13.

Take SQTLQKDLAPSAKLCKIPGV: the amyloid nucleation score entry was “inactive”.

SQYIWFFSVVLSFFSSVSWC came in with an amyloid nucleation score of -0.021 ± 0.85.

Take SRAMVKVRSNFRQRK: the amyloid nucleation score entry was “inactive”.

In the case of SRFFGGRYSVLS, the amyloid nucleation score result is “inactive”.

As for SRGTRSK, the amyloid nucleation score result is “inactive”.

Regarding SRHFTIEVSQFCIISQGVNL, the amyloid nucleation score entry was “inactive”.

As for SRITNHDD, the amyloid nucleation score entry is “inactive”.

In the case of SRKGDMPLDIDSWTCTVAFF, the amyloid nucleation score was 1.13 ± 0.12.

On to SRLIRKMKCVMGSTSSTIGY, for which the amyloid nucleation score result was “inactive”.

On to SRPLHFVYVIWGCPDQSDRN, for which the amyloid nucleation score result was “inactive”.

With SRQRIDYFMVRRSGSWSRQV, the amyloid nucleation score entry is “inactive”.

For SRRVN, the amyloid nucleation score entry was “inactive”.

For SRSCVACGLY, the amyloid nucleation score result is “inactive”.

Substance SRSVMIPVNS returned an amyloid nucleation score of -0.038 ± 0.75.

On to SRSVSESDVMGTVGIYAEFS, for which the amyloid nucleation score result was “inactive”.

As for SRTLTVYRVCHHIESSTNNF, the amyloid nucleation score entry was “inactive”.

As for SRVDPLLRNWDCRFSSLLL, the amyloid nucleation score amounted to 0.935 ± 0.096.

Turning to SRVFARFDEEDRDNSRKRTV, the amyloid nucleation score result was “inactive”.

Take SRVTSIWRGYNFINIKRGDL: the amyloid nucleation score was -0.42 ± 1.3.

Regarding SRWLSDSEIENKWFLISDMT, the amyloid nucleation score entry was “inactive”.

As for SRWSGFCIYRGN, the amyloid nucleation score entry is “inactive”.

As to SRWTEACI, the amyloid nucleation score entry was “inactive”.

SSAGVGVAKVGARHRLRRCW: the amyloid nucleation score result is “inactive”.

For the substance SSAIMCWRFMLMNSILITTP, the amyloid nucleation score result was “inactive”.

Turning to SSARAKWSDQQMSSYRA, the amyloid nucleation score entry is “inactive”.

Consider SSEKLMQGFKVRLVCHFLAR, for which the amyloid nucleation score entry is “inactive”.

For the substance SSFPGWDIECIC, the amyloid nucleation score entry was “inactive”.

SSFSVSVVSKGKSVRNSGSL showed an amyloid nucleation score of 0.568 ± 0.33.

As to SSFYCRAFGDRNVWKWQWCL, the amyloid nucleation score result is “inactive”.

For SSGFSKSKYYICVLQFVGVV, the amyloid nucleation score result is “inactive”.

In the case of SSGGCR, the amyloid nucleation score result is “inactive”.

Turning to SSGLMLWFDWLLVWRGCRLR, the amyloid nucleation score result was “inactive”.

As to SSIHVGVYYFMCMLEDVSRE, the amyloid nucleation score is 1.07 ± 0.14.

In the case of SSITVF, the amyloid nucleation score entry was “inactive”.

Consider SSKARSQSCVLRMMIPDRQW, for which the amyloid nucleation score result was “inactive”.

SSKNINVILMIKR showed an amyloid nucleation score of 2.05 ± 0.066.

As to SSLCTL, the amyloid nucleation score entry is “inactive”.

Take SSLVSCYRIFNRSGADLGLT: the amyloid nucleation score result is “inactive”.

Turning to SSLWSNK, the amyloid nucleation score result was “inactive”.

For SSMSRVCEIKVLYNMSGVYT, the amyloid nucleation score entry is “inactive”.

As to SSMYISAPSLCYLDFGLEKW, the amyloid nucleation score result was “inactive”.

Consider SSNDPQHHVDAGEADQRSRV, for which the amyloid nucleation score entry was “inactive”.

On to SSPCSVMVKVGSDHFERVAI, for which the amyloid nucleation score entry is “inactive”.

Turning to SSPRPLCPDLRLVDIIQILI, the amyloid nucleation score entry is “inactive”.

As to SSRAAVY, the amyloid nucleation score result is “inactive”.

Regarding SSRINWSASLNSLTVTVD, the amyloid nucleation score entry is “inactive”.

Substance SSSATGPAYGNKQATFRRLV displayed an amyloid nucleation score of -0.457 ± 0.9.

As to SSTPIFFLFFKSVQQVFNFP, the amyloid nucleation score amounted to 0.722 ± 0.18.

For the substance SSVKGTYIFIYDVVMLR, the amyloid nucleation score entry is “inactive”.

For SSVVT, the amyloid nucleation score result was “inactive”.

Consider SSWFNGSLTVRQLIQRGRLF, for which the amyloid nucleation score result was “inactive”.

Take SSYLI: the amyloid nucleation score entry is “inactive”.

Regarding SSYSWMGVFIYLDRIINYTH, the amyloid nucleation score was -0.339 ± 0.63.

Take SSYVLNYIHLSG: the amyloid nucleation score was found to be 1.88 ± 0.08.

With STCLTD, the amyloid nucleation score entry was “inactive”.

For STCYSCVMLMVGS, the amyloid nucleation score result is “inactive”.

Take STDNVGMGKGWTGVIGWRVM: the amyloid nucleation score entry was “inactive”.

On to STDQSASRVSERQLLCLPLT, for which the amyloid nucleation score entry was “inactive”.

Consider STDWDFHMRTFPGHVTKCWK, for which the amyloid nucleation score entry is “inactive”.

As for STLQVVEKPKIAPSLRCDSC, the amyloid nucleation score is -0.169 ± 0.51.

The substance STMWYYMLVVIMRSCRAGDR had an amyloid nucleation score of 0.793 ± 0.17.

For STNSRFFSAYCSVVGMRRHA, the amyloid nucleation score result was “inactive”.

For the substance STNWMVRLFYSRIEWGVNLG, the amyloid nucleation score entry was “inactive”.

For STRAVQIRKSRGFAGYPGN, the amyloid nucleation score entry was “inactive”.

Substance STRMRYICCSCLL gave an amyloid nucleation score of 2.99 ± 0.078.

For the substance STSFCSSLDLWSQEVIVASV, the amyloid nucleation score result is “inactive”.

As for STTVTGLYKNFRHYVSGRCG, the amyloid nucleation score entry is “inactive”.
